From US20250129140A1, “ANTI-HCMV ANTIBODIES AND ANTIGEN-BINDING FRAGMENTS THEREOF” (ICAHN SCHOOL OF MEDICINE AT MOUNT SINAI, priority 2021, published 2025)

B1: 9A12: anti-HCMV gH/gL monoclonal antibody, fusion 2; VH SEQ ID NO:59, VL SEQ ID NO:60; chimeric and fully human IgG1 versions (antibody, V domains shown)
VH: EVQLVESGGVLVQPGGSLRLSCAASGFTFSSHEMNWVRQAPGKGLEWISYISSTGSTIYDADSVKGRFTISRDNAKNSLYLQMNSLRAEDTAVYYCARSSGWYRNYSYGMDVWGQGTTVTVSS
VL: DIQMAQSPSSLSASVGDRVTITCRASQGIYNYLAWFQQKPGKAPKSLIYAASSLQTGVPSKFSGSGSGTDFTLTISNLQPEDFATYYCQQYNSFPRTFGQGTKVEIK
modifications: IgG1 constant regions
notes: anti-HCMV gH/gL monoclonal antibody, fusion 2; chimeric and fully human IgG1 versions
B2: 14E1 (antibody, V domains shown)
VH: QVQLVQSGAEVKKPGASVKVSCKASGYTFTSYSISWVRQAPGQGLEWMGWINTYNGNTNYAQRVQARVTMTTDTSTSTAYMELRSLRSDDTAVYYCARDHGFFFDYWGQGNLVTVSS
VL: DIQLTQSPSFLSASVGDRVTITCWASQGISSYLAWYQQKPGKAPKLLIYAASTLQSGVPSRFSGSGSGTEFTLTISSLQPEDFATYYCQQLNSYPYTFGQGTQLEIK
B3: 13G1: anti-HCMV gH/gL monoclonal antibody, fusion 3; VH SEQ ID NO:38, VL SEQ ID NO:39; chimeric and fully human IgG1 versions (antibody, V domains shown)
VH: QVTLKESGPVLVKPTETLTLTCTVSGFSLYNARMGVTWIRQPPGKALEWLAHIFSNDERSYTSSLKNRLTISKDTSKSQVVLTMTNMDPVDTATYYCARIDYSNYIGNWFDPWGQGTLVTVSS
VL: DIQMTQSPSSLSASVGDRVTITCRASQSISNYLNWYQQKPGKAPKLLIYAASSLQGGVPSRFSGSGSGTDFTLTISSLQPEDFTTYYCQQSYSTPFTFGGGTKVEIK
modifications: IgG1 constant regions
notes: anti-HCMV gH/gL monoclonal antibody, fusion 3; chimeric and fully human IgG1 versions

Columns and labels:
[1] = system: HCMV AD169R; assay: Neutralization by fully human versus chimeric antibody versions; assay type: cell-based, Human cytomegalovirus; settings: human IgG1 Fc versus mouse Fc
Procedure: Increasing concentrations of monoclonal antibodies (0.016-50 μg/mL) were incubated with AD169R (MOI 0.2) to assess neutralizing capacity. Percent infection was quantified using GFP expression at 18 hpi and normalized based on infection with virus alone (no antibody). CMV hyperimmune globulin (CytoGam®) was used as a control (trace on the upper right in FIGS. 8A, 8B, 8C, and 8D). FIG. 8A. […] FIG. 8B. Fully human (hu, comprising human variable and human constant regions) and chimeric (ms, comprising human variable and murine constant regions) versions of 9A12. FIG. 8C. Fully human (hu, comprising human variable and human constant regions) and chimeric (ms, comprising human variable and murine constant regions) versions of 13G1. FIG. 8D. Fully human (hu, comprising human variable and human constant regions) and chimeric (ms, comprising human variable and murine constant regions) versions of 14E1.
For this, the mouse Fc region of these mAbs was replaced with the human IgG1 Fc region.

[2] = system: CMV TB40/E infected fibroblasts; assay: SCID mouse gelfoam implant model of CMV proliferation; assay type: in vivo, SCID mice; settings: fully human mAbs 4 or 18 mg/kg, ganciclovir 50 mg/kg; i.p. every three days; day ten; versus isotype control
Procedure: At day ten post-implantation, the cells were released from the gelfoam and DNA extracted from the cells was subjected to qPCR for the HCMV UL123 and β-actin genes. The relative CMV levels cells were determined from Ct values of qPCR analysis (in triplicate) from cells collected from three mice/treatment. Statistical tests were performed using ordinary one-way ANOVA with comparisons to isotype treated cells as a control and a Dunnett's post-test; **, p<0.01; ***, p<0.001; ****, p<0.0001.
The gelfoam was implanted subcutaneously in three mice per group. […] Treatments were administrated every three days for nine days. At day ten post-implant, the gelfoam was removed and cells were released from the gel foam by collagenase treatment. The total DNA was harvest from the cells, quantified, and subjected to qPCR for UL123 (CMV gene) and b-actin (housekeeping geen) using SYBR green to evaluate virus proliferation. The qPCR analysis was performed in triplicate from three animals to determine the Ct values for UL123 and b-actin to calculate the relative levels of CMV DNA from the gelfoam samples.

[3] = target: T1, gH/gL/gO trimer (Human cytomegalovirus, UniProt F5HCH8+Q6SW67, DEL177-177/E103D/E61Q/G77R); assay: Binding to 293 Expi cells transfected with gH/gL/gO; settings: 3 days post transfection
T1 construct: expressed in transfected cells; host or cells: 293 Expi (Expi293F) cells
Procedure: (§1) gH mutants were cloned into pcDNA 3.1 and co-transfected with gL (1:1 ratio, 6 μg plasmid total) with lipofectamine 2000 (Thermo Fisher, #11668019) into 293Expi cells (7.5×10^6). Cells were harvested 3 days post transfection and fixed before being incubated with α-gH antibodies (2 μg/mL) for 1 hr at RT. Cells were washed and then incubated in anti-mouse AF647 conjugated secondary (1:1000) in order to quantify binding. Transfection efficiency was determined using pMAX eGFP plasmid which was spiked in at 0.1 μg per well.
(§2) To examine this further, 293 Expi cells were transfected with wildtype gH, wildtype gL, cotransfected with gH and gL (gH+gL), transfected with a single plasmid expressing both gH and gL (gH/gL) or co-transfected a variety of gH mutants and gL. Three days post transfection the cells were harvested and stained with unlabeled primary at 0.5 μg/mL using the antibodies indicated. Transfection efficiency was determined by measuring GFP expression on day 3 and binding was determined by percent Alexa Fluor 647 positive cells using a conjugated secondary. […] The binding profile for 1G9 is most similar to 10F8. Although the ratios of gH, gL and gO plasmid were 1:1:1 it is not certain how efficiently the trimer was assembled following transfection. […]

[4] = system: HCMV; assay: Virus neutralization, summary statements across cell types and strains; assay type: cell-based, Human cytomegalovirus; settings: MRC5; TB40/E, AD169R, TR, Towne
Procedure: AD169R^BADrUL131, TB40E, TR, or Towne was pre-incubated with monoclonal antibodies (starting dilution of 100 μg/mL antibody) was diluted using 5 fold dilutions to achieve a final range of 50-0.016 μg/mL antibody after addition to 25 μL of media containing virus; final MOI 0.2) and incubated at 4° C. for 1 hr before the inoculum was added to the appropriate cell types (ARPE-19, HTR-svNeo, MRC5, or NHDF cells at 10,000 cells per well) for 2 hrs at 37° C., 5% CO2. Following infection, the inoculum was removed and replaced with 100 μL complete DMEM/F-12 media before an overnight incubation at 37° C., 5% CO2.
Cells were fixed using 4% paraformaldehyde (PFA) for 20 minutes at room temp. Cells were then permeabilized using 0.3% Triton X-100 (Thermo Fisher, #HFH10) in PBS and stained with an affinity-purified, polyclonal rabbit anti-IE1-1/2 (0.7 ng/ml) primary and an anti-rabbit Alexa Fluor 647 (1:1000) secondary. To quantify total cells per well, Hoechst (Molecular Probes, #H3570) was diluted 1:100,000 in PBS and incubated with cells for 20 minutes at room temp. Virus neutralization was quantified using a Celigo cytometer (Nexelcom Bioscience). Percent infection was calculated using ((#IE1-1+)/(#Hoechst+))*100 events per well and normalized to the percent infection when an irrelevant, non-neutralizing, or no antibody was used.
The student's unpaired, two tailed t tests were performed using the GraphPad Prism software (La Jolla, CA). An asterisk identifies statistical significance of P<0.05 or less.

[5] = system: recombinant HCMV pentamer (strain VR1814) consisting of gH, gL, UL128, UL130 and UL131A; assay: Biolayer interferometry (Octet RED) KD determination; assay type: binding, Human cytomegalovirus; settings: for kon: association 3 minutes; for kdis: dissociation 3 minutes in PBS
Procedure: Biolayer interferometry assays were performed using the Octet RED instrument (ForteBio, Inc.) to determine the association (kon) and dissociation (kdis) constants for each antibody. Purified monoclonal antibody was loaded onto the anti-mouse Fc IgG capture (AMC) biosensors using 5-fold dilutions (50-0.016 μg/mL in PBS) for 10 minutes. To determine the kon, the sensors were exposed to the recombinant HCMV pentamer (strain VR1814) consisting of gH, gL, UL128, UL130 and UL131A (Native Antigen, CMV-PENT-100) at a constant concentration of 100 μg/mL in PBS for 3 minutes. To determine the kdis, dissociation was measured over the course of 3 minutes while the sensors were in PBS buffer. KD values were calculated as a ratio of […].
To examine this further, 293 Expi cells were transfected with wildtype gH, wildtype gL, cotransfected with gH and gL (gH+gL), transfected with a single plasmid expressing both gH and gL (gH/gL) or co-transfected a variety of gH mutants and gL. Three days post transfection the cells were harvested and stained with unlabeled primary at 0.5 μg/mL using the antibodies indicated. Transfection efficiency was determined by measuring GFP expression on day 3 and binding was determined by percent Alexa Fluor 647 positive cells using a conjugated secondary. […] The binding profile for 1G9 is most similar to 10F8. Although the ratios of gH, gL and gO plasmid were 1:1:1 it is not certain how efficiently the trimer was assembled following transfection. […] To discern minute differences in antibody binding biolayer interferometry was used, immobilizing each of the purified monoclonal antibodies (50-0.016 μg/mL) onto anti-mouse IgG Fc capture (AMC) biosensors and exposing the sensors to recombinant pentamer (100 μg/mL).

[6] = target: T2, gH monomer (Human cytomegalovirus, UniProt Q6SW67); assay: Binding to 293 Expi cells transfected with gH alone; settings: 3 days post transfection
T2 construct: expressed in transfected cells; host or cells: 293 Expi (Expi293F) cells
Procedure: as §1, §2

[7] = system: HCMV BADrUL131; assay: Dissemination / focus forming unit (FFU) assay in ARPE-19 cells; assay type: cell-based, Human cytomegalovirus
Procedure: ARPE-19 or NHDF cells were plates at 50,000 cells per well in a 24 well and infected the following day. TB40/E (MOI 0.01) and AD169RBAD^rUL131 (MOI 0.1 & 0.01) was incubated with either 10 μg/mL or 0.5 μg/mL of antibody one hour prior to addition to cells. Following a 2 hr incubation at 37° C., 5% CO2 the inoculum was removed, and cells were overlaid with 1% low melt temperature sea agarose overlay. The overlay was allowed to solidify at room temp and then 500 μL of media was added before cells were put back into the incubator. At 7 days post infection, the cells were scanned using the brightfield and GFP filters and then placed back into the tissue culture incubator until the assay was stopped by fixation and immunostaining on day 10 or 14 as indicated.
Next, a focus forming unit (FFU) assay was optimized to examine the antibodies ability to block viral replication and dissemination over multiple infection cycles. […] Once the assay was terminated at Day 10 or 14, the cells were fixed and performed immunostaining to quantify total cells by Hoechst or infection using IE1-1 as readout for infection. […] The number of FFUs was quantified per well, using 10,000 μm^2 as a cutoff for plaque area. […] Images were taken on day 7 post infection and the relative number of plaques per well was calculated compared to wells that received an irrelevant control antibody M2E10. […]

[8] = system: HCMV gB (U373-gB cells); assay: Flow cytometry binding to U373-gB cells; set-up: species or system Human cytomegalovirus

| Molecule | IC50 / neutralizing capacity of fully human version compared to chimeric counterpart [1] | CMV DNA levels (UL123 relative to β-actin, qPCR) [2] | binding to cells transfected with gH/gL/gO [3] | neutralization of infection across all strains [4] | kon [5] | kdis [5] | binding to cells transfected with gH alone [6] | rank of binding constant within the panel ([5]; recombinant pentamer) | limiting viral dissemination at low concentration [7] | binding to the surface of U373-gB cells ([8]; live cells, surface) | binding to U373-gB cells fixed and permeabilized ([8]; permeabilized cells) |
| --- | --- | --- | --- | --- | --- | --- | --- | --- | --- | --- | --- |
| B1 | remained unchanged | limit CMV infection and proliferation | bound | consistently neutralized infection | 24800 M⁻¹ s⁻¹ | 8.6e-05 s⁻¹ | bound | – | – | – | – |
| B2 | improved IC50 values | – | – | – | 24400 M⁻¹ s⁻¹ | 0.00158 s⁻¹ | – | weakest | effective | – | – |
| B3 | improved IC50 values | limit CMV infection and proliferation | – | consistently neutralized infection | 12900 M⁻¹ s⁻¹ | 6.51e-05 s⁻¹ | – | – | – | bind non-specifically | does not significantly bind |
